This is an account of results in the supplement of paper PMC7877785.

This data set in a line: self-splicing fitness, log relative to wild type (ln ratio); higher = more splicing; Tetrahymena group I intron in knt gene, E. coli kanamycin selection, DiMSum; sequences stand for … in CUCUCU…GGAGGGAAAAGUUAUCAGGCAUGCACCUGGUAGCUAGUCUUUAAACCAAUAGAUUGCAUCGGUUUAAAAGGCAAGACCGUCAAAUUGCGGGAAAGGGGUCAACAGCCGUUCAGUACCAAGUCUCAGGGGAAACUUUGAGAUGGCCUUGCAAAGGGUAUGGUAAUAAGCUGACGGACAUGGUCCUAACCACGCAGCCAAGUCCUAAGUCAACAGAUCUUCUGUUGAUAUGGAUGCAGUUCACAGACUAAAUGUCGGUCGGGGAAGAUGUAUUCUUCUCAUAAGAUAUAGUCGGACCUCUCCUUAAUGGGAGCUAGCGGAUGAAGUGAUGCAACACUGGAGCCGCUGGGAACUAAUUUGUAUGCGAAAGUAUAUUGAUUAGUUUUGGAGUACUCGUGGUCG
In a few lines: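 Colonies from six replicate transformations of E. coli BL21(DE3) were pooled and amplicon-sequenced on an Illumina HiSeq 2500. The library placed an intron with all eight P1ex-region nucleotides randomised inside the knt kanamycin-resistance gene on pET-22b(+), and cells grew overnight at 37°C or 30°C on LB agar with or without 25 μg/mL kanamycin (plus 100 μg/mL carbenicillin, 50 μM IPTG, 0.2% rhamnose). Fitness is the DiMSum error-weighted combination of wild-type-normalised replicate fold changes, kanamycin versus none.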

± gives the uncertainty stated by the source.

Take AUAGAGCAAUAUUACGUGUA: the “self-splicing fitness (ln)” value runs as follows: (30 °C) -3.02 ± 0.18; (37 °C) -1.17 ± 0.16.

AUCGAGCAAUAUUACGUAUG: the “self-splicing fitness (ln)” value is, setting by setting: (30 °C) -3.84 ± 0.19; (37 °C) -4.4 ± 0.46.

GCCCAGCAAUAUUACGAUGU: the “self-splicing fitness (ln)” value was 0.0553 ± 0.048 (30 °C) and 0.51 ± 0.069 (37 °C).

As to CCUGAGCAAUAUUACGGACG, the “self-splicing fitness (ln)” value is -2.49 ± 0.16 (30 °C) and -0.682 ± 0.12 (37 °C).

For GUCUAGCAAUAUUACGAAGC, the “self-splicing fitness (ln)” value by setting is: (30 °C) -1.58 ± 0.18; (37 °C) -0.814 ± 0.18.

For UAGGAGCAAUAUUACGAGAU, where the note is “37 °C”, the “self-splicing fitness (ln)” value is -1.95 ± 0.36.

With ACUUAGCAAUAUUACGCGUG, the “self-splicing fitness (ln)” value (30 °C) is -1.89 ± 0.1 and the “self-splicing fitness (ln)” value (37 °C) was -1.13 ± 0.11.

For the sequence AGGCAGCAAUAUUACGAUAU, the “self-splicing fitness (ln)” value reads like this: (30 °C) -1.27 ± 0.069; (37 °C) -0.399 ± 0.091.

For the sequence GCAAAGCAAUAUUACGCUGU, the “self-splicing fitness (ln)” value is, setting by setting: (30 °C) -3.42 ± 0.26; (37 °C) -2.84 ± 0.31.

As for ACGUAGCAAUAUUACGCAUC, the “self-splicing fitness (ln)” value (30 °C) is -3.3 ± 0.22 and the “self-splicing fitness (ln)” value (37 °C) is -0.518 ± 0.29.

With UCGUAGCAAUAUUACGUCAA, the “self-splicing fitness (ln)” value is -2.24 ± 0.23 (30 °C) and -1.53 ± 0.15 (37 °C).

As for GGUGAGCAAUAUUACGAGGG, the “self-splicing fitness (ln)” value is -3.16 ± 0.26 (30 °C) and -2.43 ± 0.24 (37 °C).

As to GUUUAGCAAUAUUACGCUCG, the “self-splicing fitness (ln)” value reads like this: (30 °C) -0.147 ± 0.15; (37 °C) 0.0286 ± 0.21.

Turning to GAACAGCAAUAUUACGUUGU, the “self-splicing fitness (ln)” value was -3.8 ± 0.21 (30 °C) and -2.24 ± 0.12 (37 °C).

On to CACAAGCAAUAUUACGGUCA, for which the “self-splicing fitness (ln)” value is, setting by setting: (30 °C) -2.04 ± 0.1; (37 °C) -0.612 ± 0.1.

On to UAUCAGCAAUAUUACGACUC, for which the “self-splicing fitness (ln)” value (30 °C) is -0.81 ± 0.11 and the “self-splicing fitness (ln)” value (37 °C) was -0.283 ± 0.12.

On to GUGCAGCAAUAUUACGAGAG, for which the “self-splicing fitness (ln)” value reads like this: (30 °C) -2.23 ± 0.15; (37 °C) -2.42 ± 0.2.

With AAAAAGCAAUAUUACGUGCA, the “self-splicing fitness (ln)” value is -0.742 ± 0.056 (30 °C) and -0.201 ± 0.072 (37 °C).

Consider UGUAAGCAAUAUUACGGCAA, for which the “self-splicing fitness (ln)” value (30 °C) is -0.056 ± 0.1 and the “self-splicing fitness (ln)” value (37 °C) is 0.0443 ± 0.12.

As to AGUAAGCAAUAUUACGGGAU, the “self-splicing fitness (ln)” value is, setting by setting: (30 °C) -3.01 ± 0.25; (37 °C) -1.12 ± 0.15.

On to UAUCAGCAAUAUUACGACAG, for which the “self-splicing fitness (ln)” value reads like this: (30 °C) -0.385 ± 0.078; (37 °C) 0.0531 ± 0.1.

Consider CAAGAGCAAUAUUACGCCAA, for which the “self-splicing fitness (ln)” value is, setting by setting: (30 °C) -3.78 ± 0.4; (37 °C) -2.68 ± 0.3.

As for UGCAAGCAAUAUUACGUGAU, the “self-splicing fitness (ln)” value by setting is: (30 °C) -3.33 ± 0.082; (37 °C) -2.13 ± 0.093.

For GCACAGCAAUAUUACGGAAA, the “self-splicing fitness (ln)” value runs as follows: (30 °C) -2.39 ± 0.2; (37 °C) 0.239 ± 0.16.

As to ACAGAGCAAUAUUACGACUG, the “self-splicing fitness (ln)” value is -1.05 ± 0.11 (30 °C) and -1.54 ± 0.15 (37 °C).

Turning to GCGAAGCAAUAUUACGCGUC, the “self-splicing fitness (ln)” value (37 °C) was -1.65 ± 0.17.

Consider AAUGAGCAAUAUUACGCCCA, for which the “self-splicing fitness (ln)” value runs as follows: (30 °C) -2.56 ± 0.3; (37 °C) -1.75 ± 0.32.

In the case of GGACAGCAAUAUUACGUGUA, the “self-splicing fitness (ln)” value is, setting by setting: (30 °C) -0.376 ± 0.078; (37 °C) -0.304 ± 0.085.

In the case of AGUUAGCAAUAUUACGGUUA, the “self-splicing fitness (ln)” value (30 °C) is -1.54 ± 0.12 and the “self-splicing fitness (ln)” value (37 °C) is -0.607 ± 0.087.

Take CAAUAGCAAUAUUACGUUGC: the “self-splicing fitness (ln)” value (30 °C) is -4.82 ± 0.42 and the “self-splicing fitness (ln)” value (37 °C) is -3.05 ± 0.26.

For GGGGAGCAAUAUUACGGUCG, the “self-splicing fitness (ln)” value runs as follows: (30 °C) -2.08 ± 0.28; (37 °C) -0.686 ± 0.35.

CACGAGCAAUAUUACGCCCU: the “self-splicing fitness (ln)” value (30 °C) was -2.92 ± 0.3.

In the case of CUCUAGCAAUAUUACGGGCA, the “self-splicing fitness (ln)” value is -2.62 ± 0.23 (30 °C) and -2.29 ± 0.23 (37 °C).

With CCGGAGCAAUAUUACGUUUU, the “self-splicing fitness (ln)” value (30 °C) was -3.67 ± 0.3 and the “self-splicing fitness (ln)” value (37 °C) is -2.6 ± 0.38.

Regarding AGGGAGCAAUAUUACGAUGU, the “self-splicing fitness (ln)” value (30 °C) is -1.22 ± 0.098 and the “self-splicing fitness (ln)” value (37 °C) is -2.13 ± 0.19.

In the case of UCAUAGCAAUAUUACGACUG, the “self-splicing fitness (ln)” value (30 °C) was -1.04 ± 0.1 and the “self-splicing fitness (ln)” value (37 °C) is -0.379 ± 0.14.

Regarding AGGUAGCAAUAUUACGGACC, the “self-splicing fitness (ln)” value by setting is: (30 °C) -0.613 ± 0.019; (37 °C) -0.424 ± 0.037.

For GUGCAGCAAUAUUACGUAAA, the “self-splicing fitness (ln)” value by setting is: (30 °C) -0.491 ± 0.084; (37 °C) -1.05 ± 0.11.
